Reference: US20230348573A1 (KEIO UNIVERSITY, published 2023)

B1: Ab326 (antibody, V domains shown)
VH: EVQLVESGGGVVQPGRSLRLSCAASGFTFSHYPMHWVRQAPGRGLEWVAVISYDGSNQHYVDSVKGRFTISRDNSKNTLYLQMNSLRAEDTAVYFCASLITMIRGVPDYWGQGTLVTVSS
VL: DIQMTQSPSSLSASVGDRVTITCRASQSISNYLNWYQQKPGKAPNLLIFAASSLQSGVPSRFSGSGSGTEFTLTISSLQPEDFAAYYCLQTYSTPRTFGQGTRLEIK
B2: Ab445 (antibody, V domains shown)
VH: EVQLVESGGGVVQPGTSPRLSCAASGFTFSNSGMHWVRQAPGKGLEWVAVIWYDGSKKYYVDSVKGRFTISRDNSKNTLYLQMNSLRAEDTAVYYCARDGTVAVRGVMNPFFDYWGQGTLVTVSS
VL: DIQLTQSPSSLSASVGDRVTITCQASQDISNYLNWYQQIPGKAPKLLIYDASNLETGVPSRFSGSGSGTDFTFTISSLQPEDIATYYCQQYDNLPYTFGQGTKLEIK
B3: Ab864 (antibody, V domains shown)
VH: EVQLVESGGGLVQPGRSLRLSCAASGFTFDDYAMHWVRQVPGKGLEWVSGISWNKGNIDYADSVKGRFTISRDNAKNSLYLQMNSLRPEDTGLYYCAKDCHYDSPGYFPNCLHSWGQGTLVTVSS
VL: EIVMTQSPSSLSASVGDRVTITCRASQGINTYLAWYQQKPGKAPKLLIYTASTLQSGVPSRFSGSGSGTDFTLTISSLQPEDFATYYCQQVHSYPLTFGGGTKVEIK
B4: Ab287 (antibody, V domains shown)
VH: QVQLVQSGAEVKKPGSSVKVSCKASGDTFSSYAISWVRQAPGQGLEWMGRIILIFGVANYAQKFQGRVTITADKSTSTAYMELSSLRSEDTAVYYCARGGFYYDSSGYHLDYWGQGTLVTVSS
VL: EIVLTQSPGTLSLSPGERATLSCRPSQSVSSSYLAWYQQRPGQAPRLLIYGASSRATGIPDRFSGSGSGTDFTLTISRLEPEDFAVYYCHQYGSSPRTFGQGTKVEIK
B5: Ab496 (antibody, V domains shown)
VH: EVQLVQSGPEVKKPGTSVKVSCKASGFIFTNSAVQWVRQARGQRLEWIGWIVVGSGNPNYAQKFQERVTITRDRSTSTAYMELSSLTSEDTAVYYCAAFPYYYDNSGSGPWGQGTLVTVSS
VL: DIQLTQSPSSLSASVGDRVTITCQASQDIRNNLNWYQQIPGKAPKLLIYDASNLETGVPSRFSGSASGTDFTFTISSLQPEDVATYYCQQYANLPPFTFGPGTKVDIK
B6: Ab847 (antibody, V domains shown)
VH: EVQLVQSGAEVKKPGASVKVSCKASGYTFTSYDIIWVRQATGQGLEWMGWMDPSRGTTGYAQTFQGRVTMTRDTSISTAYLELNSLTSEDTAVYYCVAHIVVLDRWFDPWGQGTLVTVSS
VL: DIVMTQSPSSLSASVGDRVTITCQASQDIGNFLNWCQQKPGQAPKVLIYGASNLETGVPSRFSGSGSGTDFTFTISSLQPEDIATYYCQHYDNFPPRFTFGQGTKLDIK
B7: Ab369 (antibody, V domains shown)
VH: QVQLVQSGAEVKKPGASVKVSCKASGYTLTNRAIHWVRQAPGQRLEWMGWINAGKGNTKYSQKFQGRVTITRDTSASTAYMELSSLKSEDTAFYYCATGDGYNYGYDSWGQGTLVTVSS
VL: NFMLTQPPSVSVAPGKTARISCGGTNIGSKSVHWYQQKPGQAPVLVVHDDSDRPSGIPERFSASNSGNTATLTISRVEAGDEADYYCQVWDSTSDLPEVVFGGGTKLTVL
B8: Ab308 (antibody, V domains shown)
VH: EVQLVQSGAEVKKPGSSVKVSCKASGGTFSSYAINWVRQAPGQGLEWMGRIIPMFGIANYAQKFQGRVTITANKSTSTAYMDLSSLRSEDTAVYYCARSQYYYDSSGYYFDYWGQGTLVTVSS
VL: not shown
B9: Ab336 (antibody, V domains shown)
VH: QVQLQQSGPGLVKPSETLSLTCTVSGGSISSYYWTWIRQPPGKGLEWIAYISYSGSTNYNPSLRSRVTISVDTSKNQFSLKLSSVTAADTAVYYCARDYYYDNSGYPDSYYGMDVWGQGTTVTVSS
VL: DIQLTQSPSTLSASVGDRVTITCRASQRISSWLAWYQQKPGKAPKLLIYKASTLQSGVPSRFSGSGSGTEFTLTISSLQPDDFATYYCQQYNSFSWTFGQGTKVEIK
B10: Ab376 (antibody, V domains shown)
VH: EVQLVESGGGLVQPGGSLRLSCEASEFTLNSHYMNWVRQAPGKGLEWVSVIYSSGSTYYADSVKGRFTISRHNSKDTLYLQMNSLKPEDTAVYYCARPNYGGNSIWYFDLWGRGTLVTVSS
VL: DIQMTQSPSSVSASVGDRVTITCRASQGIGSWLAWYQQTPGKAPKLLIYAASSLQSGVPSRFSGSGSGTDFTLTISSLQPEDFATYYCQQANSFPLTFGGGTKVEIK
B11: Ab159 (antibody, V domains shown)
VH: QVQLVESGGGLVKPGGSLRLSCAASGFTFNNAWMSWVRQAPGKGLEWVGRIKSKTDGGTTDYAAPVKGRFTFSRDDSKNTLYLQMSSLKTEDTALYYCTTADYDILTGTPASPYWGQGTLVTVSS
VL: DIQMTQSPSSLSASVGDRVTITCRASQSITNYLNWYQQKPGKAPKFLIYAASSLQGGVPSRFRGSGSGTDFTLTISSLQPEDFATYYCQQTYSTLWTFGQGTKVEIK
B12: Ab188 (antibody, V domains shown)
VH: EVQLVESGGGLVQPGGSLRLSCAASGFTFINYKMNWVRQAPGKGLEWVSYISSGSDAIYYADSVKGRFTISRDNAKNSLYLQMNSLRDEDTALYYCARGGGYNYGECMDVWGQGTTVTVSS
VL: not shown

Columns and labels:
[1] = target: T1, full-length spike protein of SARS-CoV-2 (Wuhan strain) (SARS-CoV-2 (Wuhan strain), UniProt P0DTC2 14-1273); assay: ACE2 competition, spike on 293T cells, antibody 4 µg/mL
T1 construct: whole, on cells; Expressed in 293T cells

[2] = target: T2, RBD derived from SARS-CoV-2 (Wuhan strain) (SARS-CoV-2 (Wuhan strain), UniProt P0DTC2 319-541); assay: RBD beads, antibody 1 µg/mL, then labelled ACE2, flow cytometry
T2 construct: domain: RBD

[3] = target: T1, full-length spike protein of SARS-CoV-2 …; assay: ACE2 competition, 293T cells, antibody 4 µg/mL
[4] = target: spike protein of SARS-CoV-2 (Wuhan strain) on pseudovirus (SARS-CoV-2 (Wuhan strain), UniProt P0DTC2 14-1254); assay: cell-based or functional assay
[5] = target: T2, RBD derived from SARS-CoV-2 (Wuhan …); assay: RBD beads, antibody 0.25 µg/mL, then labelled ACE2, flow cytometry
[6] = target: T2, RBD derived from SARS-CoV-2 (Wuhan …); assay: RBD beads, antibody 4 µg/mL, then labelled ACE2, flow cytometry
[7] = target: T2, RBD derived from SARS-CoV-2 (Wuhan …); assay: BLI (Octet), RBD of the Wuhan strain

Row | Binder | binding amount (%) of ACE2 protein [1] [%] | fluorescence of ACE2 protein [2] | ACE2 binding (no antibody = 100) [3] | IC50 of pseudovirus infection (luciferase) [4] [µg/mL] | fluorescence of ACE2 protein [5] | fluorescence of ACE2 protein [6] | Kd [7] [pM]
1 | B1 | 0.2 | 39.9 | 0.2 | 0.031 | 516 | 38.4 | 51.4
2 | B2 | 0.4 | 326 | 0.4 |  | 2200 | 142 | 59.3
3 | B3 | 0.4 |  |  | 0.0084 |  |  | 3900
4 | B4 | 1.5 | 105 | 0.5 |  | 689 | 32.6 | 
5 | B5 | 1.8 | 129 | 1.8 | 0.00362 | 2580 | 41.7 | 
6 | B6 | 0.3 |  |  | 0.0403 |  |  | 
7 | B7 | 4.1 | 430 |  |  | 1640 | 107 | 197
8 | B8 | 3.5 | 432 | 4.1 |  | 1390 | 59 | 6620
9 | B9 | 5.3 | 402 | 1 |  | 1110 | 106 | 2350
10 | B10 | 5.1 | 134 |  |  | 445 | 45 | 110
11 | B11 | 0.5 | 114 |  | 0.00852 | 486 | 78.3 | 1240
12 | B12 | 1.1 |  | 2.1 | 0.119 | 1570 | 148 | 
